Source: publication doi:10.1101/2025.11.17.688911

Legend:
[1] = molecular target: surface-immobilized biotinylated microtubules, Q2XVP4;Q767L7; assay: fluorescence intensity of GFP-tagged MAP9-MTBD on surface-immobilized MTs (fluorescence microscopy); details: 100 nM MAP9 construct (stated for panel h); parent: est. 0.72; read off a plot
[2] = molecular target: surface-immobilized biotinylated microtubules (pig) (UniProt Q2XVP4); assay: TIRF microscopy, fluorescence intensity of GFP-tagged MAP on microtubules; biotinylated MTs held on a streptavidin-coated coverslip; one concentration of WT or mutant MAP9 construct (100 nM in Fig. 1h-i and Extended Data Fig. 6b); BRB80, 100 mM salt

| Substance | response [1] [a.u.] | percent reduction of MT binding against WT MAP9-MTBD [2] [%] |
| --- | --- | --- |
| MAP9-MTBD (Human MAP9 (302–647)::GFP::strepII) (from UniProt Q49MG5) F473A; F516A | 0.17 |  |
| MAP9-MTBD (Human MAP9 (302–647)::GFP::strepII) (from UniProt Q49MG5) W432A; W476A; W519A; W563A; W606A | 0.04 |  |
| MAP9-MTBD R1R2 (from UniProt Q49MG5 302-647) (domain or fragment) |  | 80 |
